To fix the notation:
B3: phAimR^C6S/C74S/C99S/C136S/C223S/C267S/D174C, labelled with Alexa488 and Cy5 (natural protein, Bacillus phage phi3T)
chain: MIKNESEKDNQLAARLAKLAGYEKVNGFYKFVNTPEKEMENLGGLLKIVKNLFPDSEEQLLSEYFLELDPNKKSARQSVEYSDINQWDTLTDKIIINLSNSKNSTSQEWGKVYSLHRKLNKNEISLNDAIRESGKSKIKSAEMLFFSNAMLMYAYLNIGEFGLMKSTSKLLEFCDLPEGFIKESFKSRVSMLEANISLNENSLLEARQHSNRAIENSNVNRISFFAYLTIGNTLIFEDYDEAKKAYIKGQKYAKNPVHQEMLDGALSFLSNIWKKENQWVNYNSDNIKYLQLRAFYYINQGNIEEATEILDELSSRDQDENELGFYYYYKGLISQDKTDYYKSIRYFKKSDDKYFIQLPLLQLERMGADLELLNLISI
modifications: Alexa Fluor 488 C5 maleimide or Cy5 maleimide on the cysteine at D174C
notes: AimR of Bacillus phage phi3T (GenBank KY030782.1), six solvent-exposed cysteines changed to serine and D174C added for labelling; One dye per chain; the doubly labelled species is a dimer with Alexa488 on one subunit and Cy5 on the other; also called phAimR (D174C labeling site); D174C dye-labeling; source: E. coli BL21 (DE3), purified in the same way as the wild-type phAimR, dye-conjugated, …
B4: phAimR^C6S/C74S/C99S/C136S/C223S/C267S/N103C, labelled with Alexa488 and Cy5 (natural protein, Bacillus phage phi3T)
chain: MIKNESEKDNQLAARLAKLAGYEKVNGFYKFVNTPEKEMENLGGLLKIVKNLFPDSEEQLLSEYFLELDPNKKSARQSVEYSDINQWDTLTDKIIINLSNSKCSTSQEWGKVYSLHRKLNKNEISLNDAIRESGKSKIKSAEMLFFSNAMLMYAYLNIGEFGLMKSTSKLLEFDDLPEGFIKESFKSRVSMLEANISLNENSLLEARQHSNRAIENSNVNRISFFAYLTIGNTLIFEDYDEAKKAYIKGQKYAKNPVHQEMLDGALSFLSNIWKKENQWVNYNSDNIKYLQLRAFYYINQGNIEEATEILDELSSRDQDENELGFYYYYKGLISQDKTDYYKSIRYFKKSDDKYFIQLPLLQLERMGADLELLNLISI
modifications: Alexa Fluor 488 C5 maleimide or Cy5 maleimide on the cysteine at N103C
notes: AimR of Bacillus phage phi3T (GenBank KY030782.1), six solvent-exposed cysteines changed to serine and N103C added for labelling; One dye per chain; the doubly labelled species is a dimer with Alexa488 on one subunit and Cy5 on the other; also called phAimR (N103C labeling site); N103C dye-labeling; source: E. coli BL21 (DE3), purified in the same way as the wild-type phAimR, dye-conjugated, …

Data set [1] concerns the molecule itself. Briefly: SAXS; 100 uM protein without peptide; room temperature; 25 mM Tris-HCl pH 8.0, 300 mM NaCl.
Data set [2] has as its target T1, phAimR dimer (N103C-labelled) (Bacillus phage phi3T, UniProt P0DOE3, C136S/C223S/C267S/C6S/C74S/C99S/N103C).
T1 construct: 6xHis (N, cleaved yes); made in house; host or cells: Escherichia coli BL21 (DE3)
Put plainly: smFRET titration of phAimR dimer labelled at N103C (Alexa488/Cy5). Type of data set: binding. Conditions: no ligand. How it is done: (§1) The cysteine substitutions of phAimR (phAimR^C6S/C74S/C99S/C136S/C223S/C267S/N103C or phAimR^C6S/C74S/ C99S/C136S/C223S/C267S/D174C) were generated with a standard PCR-based strategy. Proteins were prepared in the same way as the wild-type phAimR. Alexa Fluor 488 C5 maleimide (Alexa488, A10254, Thermo Fisher, Shanghai, China) and Cy5 maleimide (Cy5, PA15131, GE Healthcare, Shanghai, China) were used as fluorescence donor and acceptor, respectively. A desalting column (HiPrep 26/10, GE Healthcare, Shanghai, China) was used to exchange the protein buffer into the conjugation buffer containing 20 mM phosphate (pH 7.4) and 100 mM NaCl. The protein fraction was collected in premixed Alexa488 and Cy5 dyes. The conjugation of phAimR was performed with Alexa488 and Cy5 at a molar ratio of 1:4:4. Conjugation reaction was performed for 3 h at room temperature in the dark, and the mixture was then purified using a Source-Q column (GE Healthcare, Shanghai, China). The fractions of double-labeled protein that had absorption at 280 nm, 493 nm and 640 nm were collected for smFRET data collection.
(§2) The laser confocal fluorescence microscope MicroTime 200 (PicoQuant, Berlin, Germany) was used for single-molecule imaging, and a pulsed interleaved excitation (PIE) scheme was used with two SPCM-AQRH detectors (Excelitas, Waltham, MA, USA) for recording fluorescence time traces at two different wavelengths. Two picosecond-pulsed diode laser heads (LDH-P-C-485 and LDH-P-C-640; PicoQuant, Berlin, Germany) were driven by a PDL 828 Sepia II driver (PicoQuant) at a repetition rate of 40 MHz, which allowed interleaved excitations for Alexa488 and Cy5. Each laser was coupled to the inverted microscope IX 73 (Olympus, Beijing, China) through a single-mode fiber, and was reflected by a dichroic mirror through a water-immersion objective (UPLSAPO 60×, N.A. 1.20). The protein sample was loaded onto a hybridization chamber (Thermo Fisher) glued to a glass coverslip (Thermo Fisher, Shanghai, China). The laser confocal point was set to about 50 μm above the coverslip. The excitation power at the back of the objective was about 100 μW for the 485 nm laser and about 35 μW for the 640 nm laser, as estimated with a power meter (PM20-FC; Thorlabs, Shanghai, China). Focused to a 100 μm pinhole, the fluorescence emission from the excited protein molecule was collected with the same objective. The donor and acceptor emissions were separated with a dichroic mirror (T635lpxr; Chroma, Xiamen, China). The donor emission was filtered with a 520/35 BP band pass, and the acceptor emission was filtered with a 690/70 BP band pass, before being focused onto the two SPCM-AQRH detectors.
(§3) The fluorescence outputs were recorded with a TimeHarp 260 PCI board (PicoQuant, Berlin, Germany) built into a PC workstation, and the data were stored in the time-tagged time-resolved module (PicoQuant, Berlin, Germany). The photon counts including fDex/Dem, fDex/Aem and fAex/Aem were obtained by binning the photons in 1 ms bins using SymPhoTime64 software (PicoQuant, Berlin, Germany). […] With all three fluorescence time traces recorded, the signals from the donor-only or acceptor-only protein molecules were filtered out, so as to ensure that an fDex/Aem photon only arises from a doubly labeled protein. […]

Data set [3] addresses T2, phAimR dimer (D174C-labelled) (Bacillus phage phi3T, UniProt P0DOE3, C136S/C223S/C267S/C6S/C74S/C99S/D174C).
T2 construct: 6xHis (N, cleaved yes); made in house; host or cells: Escherichia coli BL21 (DE3)
Put plainly: smFRET titration of phAimR dimer labelled at D174C (Alexa488/Cy5). Type of data set: binding. Particulars: no ligand. How it is done: as §1, §2, §3

Data set [4] deals with the molecule itself. Put plainly: FRET or BRET; smFRET in solution, FRET between the two subunits (one dye site per chain), no ligand; about 100 pM doubly labelled phAimR; 25 C, 20 mM Tris-HCl pH 7.5, 100 mM NaCl, 0.005% Tween 20. (In general: BRET reads energy transfer from a luciferase to a nearby fluorophore.)
For data set [5], the target named is B4. Briefly: FRET or BRET; smFRET in solution; about 100 pM doubly labelled (Alexa488/Cy5) phAimR, peptide titrated; KD from the population of the enriched FRET state; 25 C, 20 mM Tris-HCl pH 7.5, 100 mM NaCl, 0.005% Tween 20, 1 mM L-ascorbic acid, 1 mM methylviologen. Conditions: both partners purified.
The target of data set [6] is B3. The description is as above. Particulars: both partners purified.

B1: phAimR carrying two amino acids substitutions (phAimR^Y341A/E371A) (natural protein, Bacillus phage phi3T)
chain: MIKNECEKDNQLAARLAKLAGYEKVNGFYKFVNTPEKEMENLGGLLKIVKNLFPDSEEQLLSEYFLELDPNKKCARQSVEYSDINQWDTLTDKIIINLCNSKNSTSQEWGKVYSLHRKLNKNEISLNDAIRESGKCKIKSAEMLFFSNAMLMYAYLNIGEFGLMKSTSKLLEFDDLPEGFIKESFKSRVSMLEANISLNENSLLEARQHSNRAIENSNVNRICFFAYLTIGNTLIFEDYDEAKKAYIKGQKYAKNPVHQEMLDGALCFLSNIWKKENQWVNYNSDNIKYLQLRAFYYINQGNIEEATEILDELSSRDQDENELGFYYYYKGLISQDKTDYAKSIRYFKKSDDKYFIQLPLLQLERMGADLALLNLISI
notes: AimR of Bacillus phage phi3T (GenBank KY030782.1) with Y341A and E371A; also called phAim^Y341A/E371A; phAimR^Y341/E371A; source: E. coli BL21 (DE3), purified, prepared in the same way as the wild-type protein; not shown: His6, N-terminal, cleaved
What is called stoichiometry N is a count of units in the complex or per binding partner. As to B1, the “stoichiometry N” value in data set [1] was 2.

B2: phAimR: AimR from Phi3T phage (GenBank: KY030782.1), transcription factor and arbitrium peptide receptor (protein)
chain: MIKNECEKDNQLAARLAKLAGYEKVNGFYKFVNTPEKEMENLGGLLKIVKNLFPDSEEQLLSEYFLELDPNKKCARQSVEYSDINQWDTLTDKIIINLCNSKNSTSQEWGKVYSLHRKLNKNEISLNDAIRESGKCKIKSAEMLFFSNAMLMYAYLNIGEFGLMKSTSKLLEFDDLPEGFIKESFKSRVSMLEANISLNENSLLEARQHSNRAIENSNVNRICFFAYLTIGNTLIFEDYDEAKKAYIKGQKYAKNPVHQEMLDGALCFLSNIWKKENQWVNYNSDNIKYLQLRAFYYINQGNIEEATEILDELSSRDQDENELGFYYYYKGLISQDKTDYYKSIRYFKKSDDKYFIQLPLLQLERMGADLELLNLISI
modifications: left off: His6, N-terminal, cleaved
notes: AimR from Phi3T phage (GenBank: KY030782.1), transcription factor and arbitrium peptide receptor
With B2, in data set [2], the “FRET efficiency centre of high-FRET species (state 2)” value was roughly 62%; the “FRET efficiency centre of low-FRET species (state 1)” value was “about 30%”; the “population of high-FRET species (Phigh, state 2)” value is ~ 42%; the “population of low-FRET species (Plow, state 1)” value is on record as ~ 58%. Moreover, in data set [3], the “FRET efficiency centre of high-FRET species (state 1)” value is recorded as roughly 63%, the “FRET efficiency centre of low-FRET species (state 2)” value was “about 35%”, the “population of high-FRET species (state 1)” value is recorded as ~ 61% and the “population of low-FRET species (state 2)” value was ~ 39%.

Turning to B3, the “stoichiometry N” value in data set [4] was found to be 2.

B4: in data set [4], the “stoichiometry N” value was determined as 2.

B5: phi3T arbitrium peptide (SAIRGA) (peptide)
peptide: SAIRGA
notes: mature arbitrium peptide processed from the AimP pro-peptide (43 amino acids) of Bacillus phage phi3T; also called SAIRGA peptide; phi3T-derived peptide
What is called Kd is the equilibrium constant for the complex coming apart. On to B5, for which the Kd in data set [5] was found to be 41.5 ± 5.8 nM; in data set [6] it was 22.9 ± 0.5 nM.

The record behind these values is article PMC8464984, “AimR Adopts Preexisting Dimer Conformations for Specific Target Recognition in Lysis-Lysogeny Decisions of Bacillus Phage phi3T” (Biomolecules, 2021).
